Reference: patent US11965039B2, “Compstatin analogues and their medical uses” (priority 2018, dated 2024)
Positions of bridges follow the written chain, without caps; N, C: chain ends. Non-standard residues stand in square brackets, D forms with d. Trp(1-Me) = Cn1cc(C[C@H](N)C(=O)O)c2ccccc21; 1Nal = N[C@@H](Cc1cccc2ccccc12)C(=O)O; 2Nal = N[C@@H](Cc1ccc2ccccc2c1)C(=O)O; Sar = CNCC(=O)O

Assays:
[1] = target: T1, Human C3 (Complement tech cat #A113c) (human, UniProt P01024 23-1663); assay: cell-based or functional assay
[2] = target: T1, Human C3 (Complement tech cat #A113c); assay: SPR (Biacore T200), human C3 immobilised, peptide injected, 1:1 fit
Summary of the method: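 Human C3 amine-coupled on CM5 chips to about 3000 RU. Multi-cycle runs on Biacore T200 at 25° C: peptides at 6-8 rising concentrations, 60-120 s at 30 µL/min in 10 mM Tris pH 7.4, 150 mM NaCl, 0.05% Tween20, dissociation up to 10 min; 3 M MgCl2 regeneration. Kd derived.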

T1 sequence (P01024 23-1663 limits assumed): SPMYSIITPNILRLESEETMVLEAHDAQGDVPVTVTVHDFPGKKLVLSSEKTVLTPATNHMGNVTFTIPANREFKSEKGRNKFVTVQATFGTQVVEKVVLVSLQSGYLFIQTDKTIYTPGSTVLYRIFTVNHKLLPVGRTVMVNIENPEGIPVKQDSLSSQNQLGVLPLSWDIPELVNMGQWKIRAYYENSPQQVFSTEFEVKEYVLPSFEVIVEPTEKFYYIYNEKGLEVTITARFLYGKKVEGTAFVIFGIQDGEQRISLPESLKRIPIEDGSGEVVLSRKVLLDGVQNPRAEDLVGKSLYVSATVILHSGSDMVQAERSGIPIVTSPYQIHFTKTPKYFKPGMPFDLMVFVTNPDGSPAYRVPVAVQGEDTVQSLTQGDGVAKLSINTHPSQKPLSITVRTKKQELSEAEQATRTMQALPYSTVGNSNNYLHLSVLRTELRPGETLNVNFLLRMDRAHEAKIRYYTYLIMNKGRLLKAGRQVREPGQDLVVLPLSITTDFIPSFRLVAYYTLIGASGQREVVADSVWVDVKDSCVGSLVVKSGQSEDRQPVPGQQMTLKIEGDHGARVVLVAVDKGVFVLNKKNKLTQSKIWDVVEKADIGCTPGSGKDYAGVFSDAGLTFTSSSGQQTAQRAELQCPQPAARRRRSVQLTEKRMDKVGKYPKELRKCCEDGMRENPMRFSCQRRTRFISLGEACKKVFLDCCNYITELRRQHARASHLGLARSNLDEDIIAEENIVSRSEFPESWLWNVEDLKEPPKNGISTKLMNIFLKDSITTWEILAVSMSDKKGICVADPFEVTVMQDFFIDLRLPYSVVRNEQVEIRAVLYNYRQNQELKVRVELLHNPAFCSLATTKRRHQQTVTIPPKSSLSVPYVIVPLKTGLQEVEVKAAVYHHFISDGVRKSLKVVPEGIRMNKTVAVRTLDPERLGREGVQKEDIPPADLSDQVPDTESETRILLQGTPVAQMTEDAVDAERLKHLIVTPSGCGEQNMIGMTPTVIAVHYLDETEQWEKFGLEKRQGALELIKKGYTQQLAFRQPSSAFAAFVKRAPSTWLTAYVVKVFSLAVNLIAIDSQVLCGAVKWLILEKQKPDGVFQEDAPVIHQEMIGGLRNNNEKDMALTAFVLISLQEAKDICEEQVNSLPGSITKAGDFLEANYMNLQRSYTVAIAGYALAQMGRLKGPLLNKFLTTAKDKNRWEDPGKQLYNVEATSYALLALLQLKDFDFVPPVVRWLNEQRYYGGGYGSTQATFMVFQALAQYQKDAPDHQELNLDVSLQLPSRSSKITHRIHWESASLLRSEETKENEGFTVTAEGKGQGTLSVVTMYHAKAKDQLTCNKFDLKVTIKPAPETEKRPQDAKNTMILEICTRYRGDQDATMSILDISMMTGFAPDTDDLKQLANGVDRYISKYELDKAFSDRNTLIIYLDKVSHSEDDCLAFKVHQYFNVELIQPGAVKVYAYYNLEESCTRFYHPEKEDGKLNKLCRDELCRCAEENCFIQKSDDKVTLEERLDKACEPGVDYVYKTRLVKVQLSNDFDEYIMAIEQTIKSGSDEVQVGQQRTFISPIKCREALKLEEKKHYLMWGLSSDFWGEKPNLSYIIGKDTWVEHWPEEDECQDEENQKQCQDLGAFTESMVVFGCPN

| Kd [2] | Binder | inhibition of hemolysis IC50 [1] |
| --- | --- | --- |
| 0.33 nM | Ac-FCI[Trp(1-Me)]QDWGEHRCTGAES-NH2 (disulfide 2-12; SMILES CC[C@H](C)[C@@H]1NC(=O)[C@@H](NC(=O)[C@H](Cc2ccccc2)NC(C)=O)CSSC[C@@H](C(=O)N[C@H](C(=O)NCC(=O)N[C@@H](C)C(=O)N[C@@H](CCC(=O)O)C(=O)N[C@@H](CO)C(N)=O)[C@@H](C)O)NC(=O)[C@H](CCCNC(=N)N)NC(=O)[C@H](Cc2c[nH]cn2)NC(=O)[C@H](CCC(=O)O)NC(=O)CNC(=O)[C@H](Cc2c[nH]c3ccccc23)NC(=O)[C@H](CC(=O)O)NC(=O)[C@H](CCC(N)=O)NC(=O)[C@H](Cc2cn(C)c3ccccc23)NC1=O) [Compound 61] | < 100 nM |
| 4.3 nM | Ac-FCI[1Nal]QDWGEHRCTGAES-NH2 (disulfide 2-12; SMILES CC[C@H](C)[C@@H]1NC(=O)[C@@H](NC(=O)[C@H](Cc2ccccc2)NC(C)=O)CSSC[C@@H](C(=O)N[C@H](C(=O)NCC(=O)N[C@@H](C)C(=O)N[C@@H](CCC(=O)O)C(=O)N[C@@H](CO)C(N)=O)[C@@H](C)O)NC(=O)[C@H](CCCNC(=N)N)NC(=O)[C@H](Cc2c[nH]cn2)NC(=O)[C@H](CCC(=O)O)NC(=O)CNC(=O)[C@H](Cc2c[nH]c3ccccc23)NC(=O)[C@H](CC(=O)O)NC(=O)[C@H](CCC(N)=O)NC(=O)[C@H](Cc2cccc3ccccc23)NC1=O) [Compound 63] | < 100 nM |
| 0.68 nM | Ac-SEFCI[Trp(1-Me)]QDWGEHRCTGAES-NH2 (disulfide 4-14; SMILES CC[C@H](C)[C@@H]1NC(=O)[C@@H](NC(=O)[C@H](Cc2ccccc2)NC(=O)[C@H](CCC(=O)O)NC(=O)[C@H](CO)NC(C)=O)CSSC[C@@H](C(=O)N[C@H](C(=O)NCC(=O)N[C@@H](C)C(=O)N[C@@H](CCC(=O)O)C(=O)N[C@@H](CO)C(N)=O)[C@@H](C)O)NC(=O)[C@H](CCCNC(=N)N)NC(=O)[C@H](Cc2c[nH]cn2)NC(=O)[C@H](CCC(=O)O)NC(=O)CNC(=O)[C@H](Cc2c[nH]c3ccccc23)NC(=O)[C@H](CC(=O)O)NC(=O)[C@H](CCC(N)=O)NC(=O)[C@H](Cc2cn(C)c3ccccc23)NC1=O) [Compound 67] | < 100 nM |

The next lines start with the binder.

| Binder | Kd [2] | inhibition of hemolysis IC50 [1] |
| --- | --- | --- |
| Ac-EGSAICIWQDWGEHRCT-NH2 (disulfide 6-16; SMILES CC[C@H](C)[C@H](NC(=O)[C@H](C)NC(=O)[C@H](CO)NC(=O)CNC(=O)[C@H](CCC(=O)O)NC(C)=O)C(=O)N[C@H]1CSSC[C@@H](C(=O)N[C@H](C(N)=O)[C@@H](C)O)NC(=O)[C@H](CCCNC(=N)N)NC(=O)[C@H](Cc2c[nH]cn2)NC(=O)[C@H](CCC(=O)O)NC(=O)CNC(=O)[C@H](Cc2c[nH]c3ccccc23)NC(=O)[C@H](CC(=O)O)NC(=O)[C@H](CCC(N)=O)NC(=O)[C@H](Cc2c[nH]c3ccccc23)NC(=O)[C@H]([C@@H](C)CC)NC1=O) [Compound 29] | 21 nM | < 100 nM |
| Ac-FCIWQDWGEHRCTGAE-NH2 (disulfide 2-12; SMILES CC[C@H](C)[C@@H]1NC(=O)[C@@H](NC(=O)[C@H](Cc2ccccc2)NC(C)=O)CSSC[C@@H](C(=O)N[C@H](C(=O)NCC(=O)N[C@@H](C)C(=O)N[C@@H](CCC(=O)O)C(N)=O)[C@@H](C)O)NC(=O)[C@H](CCCNC(=N)N)NC(=O)[C@H](Cc2c[nH]cn2)NC(=O)[C@H](CCC(=O)O)NC(=O)CNC(=O)[C@H](Cc2c[nH]c3ccccc23)NC(=O)[C@H](CC(=O)O)NC(=O)[C@H](CCC(N)=O)NC(=O)[C@H](Cc2c[nH]c3ccccc23)NC1=O) [Compound 43] | 3.3 nM | < 100 nM |
| Ac-EGSAICI[Trp(1-Me)]QDWGEHRC[Sar]E-NH2 (disulfide 6-16; SMILES CC[C@H](C)[C@H](NC(=O)[C@H](C)NC(=O)[C@H](CO)NC(=O)CNC(=O)[C@H](CCC(=O)O)NC(C)=O)C(=O)N[C@H]1CSSC[C@@H](C(=O)N(C)CC(=O)N[C@@H](CCC(=O)O)C(N)=O)NC(=O)[C@H](CCCNC(=N)N)NC(=O)[C@H](Cc2c[nH]cn2)NC(=O)[C@H](CCC(=O)O)NC(=O)CNC(=O)[C@H](Cc2c[nH]c3ccccc23)NC(=O)[C@H](CC(=O)O)NC(=O)[C@H](CCC(N)=O)NC(=O)[C@H](Cc2cn(C)c3ccccc23)NC(=O)[C@H]([C@@H](C)CC)NC1=O) [Compound 49] | 3.2 nM | < 100 nM |
| Ac-EGSAICI[2Nal]QDWGEHRC[Sar]E-NH2 (disulfide 6-16; SMILES CC[C@H](C)[C@H](NC(=O)[C@H](C)NC(=O)[C@H](CO)NC(=O)CNC(=O)[C@H](CCC(=O)O)NC(C)=O)C(=O)N[C@H]1CSSC[C@@H](C(=O)N(C)CC(=O)N[C@@H](CCC(=O)O)C(N)=O)NC(=O)[C@H](CCCNC(=N)N)NC(=O)[C@H](Cc2c[nH]cn2)NC(=O)[C@H](CCC(=O)O)NC(=O)CNC(=O)[C@H](Cc2c[nH]c3ccccc23)NC(=O)[C@H](CC(=O)O)NC(=O)[C@H](CCC(N)=O)NC(=O)[C@H](Cc2ccc3ccccc3c2)NC(=O)[C@H]([C@@H](C)CC)NC1=O) [Compound 50] | 13 nM | < 100 nM |
| H-[dY]FCI[Trp(1-Me)]QDW[Sar]EHRCTGAES-NH2 (disulfide 3-13; SMILES CC[C@H](C)[C@@H]1NC(=O)[C@@H](NC(=O)[C@H](Cc2ccccc2)NC(=O)[C@H](N)Cc2ccc(O)cc2)CSSC[C@@H](C(=O)N[C@H](C(=O)NCC(=O)N[C@@H](C)C(=O)N[C@@H](CCC(=O)O)C(=O)N[C@@H](CO)C(N)=O)[C@@H](C)O)NC(=O)[C@H](CCCNC(=N)N)NC(=O)[C@H](Cc2c[nH]cn2)NC(=O)[C@H](CCC(=O)O)NC(=O)CN(C)C(=O)[C@H](Cc2c[nH]c3ccccc23)NC(=O)[C@H](CC(=O)O)NC(=O)[C@H](CCC(N)=O)NC(=O)[C@H](Cc2cn(C)c3ccccc23)NC1=O) [Compound 73] | 0.3 nM | < 100 nM |
| Ac-SEFCI[Trp(1-Me)]QDWGEHRC[Sar]EA-NH2 (disulfide 4-14; SMILES CC[C@H](C)[C@@H]1NC(=O)[C@@H](NC(=O)[C@H](Cc2ccccc2)NC(=O)[C@H](CCC(=O)O)NC(=O)[C@H](CO)NC(C)=O)CSSC[C@@H](C(=O)N(C)CC(=O)N[C@@H](CCC(=O)O)C(=O)N[C@@H](C)C(N)=O)NC(=O)[C@H](CCCNC(=N)N)NC(=O)[C@H](Cc2c[nH]cn2)NC(=O)[C@H](CCC(=O)O)NC(=O)CNC(=O)[C@H](Cc2c[nH]c3ccccc23)NC(=O)[C@H](CC(=O)O)NC(=O)[C@H](CCC(N)=O)NC(=O)[C@H](Cc2cn(C)c3ccccc23)NC1=O) [Compound 75] | 1.5 nM | < 100 nM |
